One assay has as its target T1, S100b (S100) (Homo sapiens, UniProt P04271).
T1 sequence (P04271 1-92): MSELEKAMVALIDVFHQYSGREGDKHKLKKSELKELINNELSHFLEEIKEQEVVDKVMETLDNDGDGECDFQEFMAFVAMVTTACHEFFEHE
As to the kind of experiment: In vitro ligand binding ELISA, immobilized S100b. As to conditions: various dilutions of fusion protein; FIG. 7. The method, then: For example, the RAGE fusion protein may be used in a binding assay to identify potential RAGE ligands. In one example embodiment of such a binding assay, a known RAGE ligand may coated onto a solid substrate (e.g., Maxisorb plates) at a concentration of about 5 micrograms per well, where each well contains a total volume of about 100 microliters (μL). The plates may be incubated at 4° C. overnight to allow the ligand to absorb. Alternatively, shorter incubation periods at higher temperature (e.g., room temperature) may be used. […] The fusion protein bound to the immobilized ligand may be detected in a variety of ways. […] The bound complex may be detected by adding the alkaline phosphatase substrate, para-nitrophenylphosphate (PNPP), and measuring conversion of PNPP to para-nitrophenol (PNP) as an increase in absorbance at 405 nm. […] Binding was detected by the addition of an immunodetection complex containing a monoclonal mouse anti-human IgG1 diluted 1:11,000 to a final assay concentration (FAC) of 21 ng/100 μL, a biotinylated goat anti-mouse IgG diluted 1:500, to a FAC of […], and an avidin-linked alkaline phosphatase. […] Binding of the complex to the immobilized fusion protein was quantified by measuring conversion of PNPP to para-nitrophenol (PNP) which was-measured spectrophotornetrically at 405 nm. […]

Assay [1] addresses immobilized known RAGE ligands (HMG1B, CML, A beta). Put plainly: Saturation binding of TTP-4000 to immobilized known RAGE ligands. As to conditions: fusion protein 0 to 360 nM; Graphpad Prizm; FIG. 15; figures not given. The method, then:
The ligands are immobilized on a microtiter plate and incubated in the presence of increasing concentrations of fusion protein from 0 to 360 nM. The fusion protein-ligand interaction is detected using a polyclonal antibody conjugated with alkaline phosphatase that is specific for the IgG portion of the fusion chimera. […] HMG1B=Ampoterin, CML=Carboxymethyl Lysine, A beta=Amyloid beta 1-40.

B1: TTP-4000: four domain RAGE fusion protein (SEQ ID NO: 32): human RAGE amino acids 1-251 linked to CH2 and CH3 domains of human IgG (protein)
chain: MAAGTAVGAWALVLSLWGAVVGAQNITARIGEPLVLKCKGAPKKPPQRLEWKLNTGRTEAWKVLSPQGGGPWDSVARVLPNGSLFLPAVGIQDEGIFRCQAMNRNGKETKSNYRVRVYQIPGKPEIVDSASELTAGVPNKVGTCVSEGSYPAGTLSWHLDGKPLVPNEKGVSVKEQTRRHPETGLFTLQSELMVTPARGGDPRPTFSCSFSPGLPRHRALRTAPIQPRVWEPVPLEEVQLVVEPEGGAVAPPSVFLFPPKPKDTLMISRTPEVTCVVVDVSHEDPEVKFNWYVDGVEVHNAKTKPREEQYNSTYRVVSVLTVLHQDWLNGKEYKCKVSNKALPAPIEKTISKAKGQPREPQVYTLPPSRDELTKNQVSLTCLVKGFYPSDIAVEWESNGQPENNYKTTPPVLDSDGSFFLYSKLTVDKSRWQQGNVFSCSVMHEALHNHYTQKSLSLSPGK
Take B1: the “binding to immobilized S100b (absorbance at 405 nm)” value with S100b (S100) is on record as “specifically interact”. The “Relative Kds” value in assay [1] is “match with established literature values”.

The record behind these values is patent publication US7981423B2, “Rage fusion proteins” (Transtech Pharma, Inc., priority 2004, dated 2011).
